Experimental data as given in patent CN114075288A (CHIA TAI TIANQING PHARMACEUTICAL GROUP CO LTD, dated 2022).

T1: 人PD-L2，稳定表达于U2OS细胞系 (PD-L2-U2OS) (human, UniProt Q9BQ51 20-273)
T1 construct: whole, on cells; also called U2OS-PD-L2; 配体细胞
T1 sequence (looked up): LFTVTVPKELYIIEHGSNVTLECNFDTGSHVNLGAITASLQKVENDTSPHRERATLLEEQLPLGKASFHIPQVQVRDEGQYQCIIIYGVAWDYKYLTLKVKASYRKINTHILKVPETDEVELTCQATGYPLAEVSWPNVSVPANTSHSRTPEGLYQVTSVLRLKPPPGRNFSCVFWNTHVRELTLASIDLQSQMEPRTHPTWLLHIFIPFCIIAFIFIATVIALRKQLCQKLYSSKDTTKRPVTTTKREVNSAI

T2: hPD-L2-His (ACRObiosystems，目录号:PD2-H5220) (human, UniProt Q9BQ51 20-219)
T2 construct: Bought protein (ACRObiosystems PD2-H5220); also called 人PD-L2抗原; 重组体hPD-L2-His蛋白; not shown: His tag
T2 sequence (looked up): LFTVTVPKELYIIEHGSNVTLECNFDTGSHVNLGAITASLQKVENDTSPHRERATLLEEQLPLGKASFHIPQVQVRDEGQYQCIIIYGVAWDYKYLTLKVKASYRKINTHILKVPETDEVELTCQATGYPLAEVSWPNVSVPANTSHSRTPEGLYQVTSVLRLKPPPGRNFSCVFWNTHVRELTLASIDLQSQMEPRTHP


Columns and labels:
[1] = biological target: T1, 人PD-L2，稳定表达于U2OS细胞系 (PD-L2-U2OS); assay: flow cytometry on PD-L2-U2OS cells
[2] = biological target: T1, 人PD-L2，稳定表达于U2OS细胞系 (PD-L2-U2OS); assay: cell-based or functional assay
[3] = biological target: T2, hPD-L2-His …; assay: ELISA, coated hPD-L2-His

Row | Binder | EC50 [1] | IC50(ng/mL), 化学发光信号, 基于细胞的抗体阻断分析 [2] | EC50 [3]
1 | 嵌合7A7抗体 (antibody, human IgG1, kappa, V domains shown, made in Expi-CHO; also called Xi7A7) VH: EVQLQQSGPELVKPGASMKISCKASGYSFSGYTMNWVKQSLGKNLEWIGLISPYNGVTTYNQKFKGKASLTVDTSSNTAYMELLSLTSDDSAVYYCARGVTVPLRFDVWGAGTPVTVSS VL: DIVMTQSPSSLTVTTGEKVTMSCKSSQSLLNSGNQKNYLTWYQQKTGQPPKLLIYWASTRESGVPDRFTGSGSGTDFTLTINNVQAEDLAVYYCQNDDSYPLTFGAGTKLELKR | 0.43 µg/mL |  | 
2 | 嵌合24A3抗体 (antibody, human IgG1, kappa, V domains shown, also called Xi24A3) VH: QVQLQQSGAEVVRSGTSVKVSCKASGYAFTNYLIEWVKQRPGQGLEWIGVINPVNGGISYNEKFKGKATLTADKSSSTVYMQLSSLTSDDSAVYFCIRSGGNYGGDYWGQGTTLTVSS VL: DVVVTQTPKFLPVTAEDRVTITCKASQSVSNEVAWYQQKPGQSPKLLIYYASHRYTGVPDRFTGSGSGTDFTFTISSVQVEDLAVYFCQQHFSSPLTFGAGTKLELKR | 0.967 µg/mL | 221 ng/mL | 
3 | 嵌合14E7抗体 (antibody, human IgG1, kappa, V domains shown, also called Xi14E7) VH: QVQLQQSGPQLVRPGASVKISCKASGYSFTSYWMHWVKQRPGQGLDWIGMIDPSDSETRLNQKFKDKATLTVDKSSSTAYMQLSSPTSEDSAVYYCARWALQYFDYWGQGTTLTVSS VL: DIVMTQSQKFMSTTVGDRVSITCKASQNVGAAVAWYQQKPGQSPKLLIYSASNRYPGVPDRFTGSGSGTDFTLTISNMHSEDLADYFCQQYRPYPFTFGGGTKLEIKR | 1.12 µg/mL | 342 ng/mL | 
4 | 人源化7A7-1.1抗体 (antibody, human IgG1, kappa, V domains shown, human IgG1 / human kappa; also called Hz7A7-1.1) VH: QVQLVQSGAEVKKPGASVKVSCKASGYSFSGYTMNWVRQAPGQGLEWMGLISPYNGVTTYAQKFQGRVTMTVDTSTNTVYMELSSLRSEDTAVYYCARGVTVPLRFDVWGQGTLVTVSS VL: DIQMTQSPSSLSASVGDRVTITCKSSQSLLNSGNQKNYLTWYQQKPGKAPKLLIYWASTRESGVPSRFSGSGSGTDFTLTISSLQPEDFATYYCQNDDSYPLTFGQGTKVEIKR | 0.613 µg/mL | 585 ng/mL | 0.308 µg/mL
5 | 人源化7A7-2.1抗体 (antibody, human IgG1, kappa, V domains shown, human IgG1 / human kappa; also called Hz7A7-2.1) VH: QVQLVQSGAEVKKPGASVKVSCKASGYSFSGYTMNWVRQAPGQGLEWMGLISPYNGVTTYAQKFQGRVTMTVDTSTNTVYMELSSLRSEDTAVYYCARGVTVPLRFDVWGQGTLVTVSS VL: DIQMTQSPSSLSASVGDRVTITCKSSQSLLQSGNQKNYLTWYQQKPGKAPKLLIYWASTRESGVPSRFSGSGSGTDFTLTISSLQPEDFATYYCQNDDSYPLTFGQGTKVEIKR | 0.924 µg/mL | 144 ng/mL | 1.12 µg/mL
6 | 人源化7A7-1.2抗体 (antibody, human IgG1, kappa, V domains shown, human IgG1 / human kappa; also called Hz7A7-1.2) VH: QVQLVQSGAEVKKPGASVKVSCKASGYSFSGYTMNWVRQAPGQGLEWMGLISPYQGVTTYAQKFQGRVTMTVDTSTNTVYMELSSLRSEDTAVYYCARGVTVPLRFDVWGQGTLVTVSS VL: DIQMTQSPSSLSASVGDRVTITCKSSQSLLNSGNQKNYLTWYQQKPGKAPKLLIYWASTRESGVPSRFSGSGSGTDFTLTISSLQPEDFATYYCQNDDSYPLTFGQGTKVEIKR | 0.833 µg/mL | 374 ng/mL | 0.68 µg/mL
7 | 人源化25G4-1.1抗体 (antibody, human IgG1, kappa, V domains shown, human IgG1 / human kappa; also called Hz25G4-1.1) VH: QVQLVQSGAEVKKPGASVKVSCKASGYTFTTNWMNWVRQAPGQGLEWMGRIDPSDSETHYAQKFQGRVTMTVDKSTNTVYMELSSLRSEDTAVYYCVREGIYGPWFAYWGQGTLVTVSS VL: DIQMTQSPSSLSASVGDRVTITCRASESVDNYGISLMHWYQQKPGKAPKLLIYRASDLESGVPSRFSGSGSRTDFTLTISSLQPEDFATYYCQQSDKDPPTFGQGTKVEIKR | 0.483 µg/mL | 1000 ng/mL | 0.0689 µg/mL
8 | 人源化25G4-1.2抗体 (antibody, human IgG1, kappa, V domains shown, human IgG1 / human kappa; also called Hz25G4-1.2) VH: QVQLVQSGAEVKKPGASVKVSCKASGYTFTTNWMNWVRQAPGQGLEWMGRIDPSESETHYAQKFQGRVTMTVDKSTNTVYMELSSLRSEDTAVYYCVREGIYGPWFAYWGQGTLVTVSS VL: DIQMTQSPSSLSASVGDRVTITCRASESVDNYGISLMHWYQQKPGKAPKLLIYRASDLESGVPSRFSGSGSRTDFTLTISSLQPEDFATYYCQQSDKDPPTFGQGTKVEIKR |  | 700 ng/mL | 0.0874 µg/mL
9 | 人源化24A3-1.1抗体 (antibody, human IgG1, kappa, V domains shown, human IgG1 / human kappa; also called Hz24A3-1.1) VH: QVQLVQSGAEVKKPGASVKVSCKASGYAFTNYLIEWVRQAPGQGLEWMGVINPVNGGISYAQKFQGRVTMTADKSTSTVYMELSSLRSEDTAVYYCARSGGNYGGDYWGQGTLVTVSS VL: DVVMTQSPDSLAVSLGERATISCKASQSVSNEVAWYQQKPGQPPKLLIYYASHRYTGVPDRFSGSGSGTDFTLTISSLQAEDVAVYYCQQHFSSPLTFGQGTKVEIKR | 1.05 µg/mL | 1950 ng/mL | 0.167 µg/mL
10 | 人源化24A3-1.2抗体 (antibody, human IgG1, kappa, V domains shown, human IgG1 / human kappa; also called Hz24A3-1.2) VH: QVQLVQSGAEVKKPGASVKVSCKASGYAFTNYLIEWVRQAPGQGLEWMGVINPVQGGISYAQKFQGRVTMTADKSTSTVYMELSSLRSEDTAVYYCARSGGNYGGDYWGQGTLVTVSS VL: DVVMTQSPDSLAVSLGERATISCKASQSVSNEVAWYQQKPGQPPKLLIYYASHRYTGVPDRFSGSGSGTDFTLTISSLQAEDVAVYYCQQHFSSPLTFGQGTKVEIKR | 0.62 µg/mL | 1420 ng/mL | 0.223 µg/mL
11 | 嵌合25G4抗体 (antibody, human IgG1, kappa, V domains shown, also called Xi25G4) VH: QVQLQQPGVEVVRPGAPVKLSCKASGYTFTTNWMNWVKQRPGRGLEWIGRIDPSDSETHYNQQFKDKATLTVDKSSNTAYIQLSSLTSEDSAVYYCVREGIYGPWFAYWGQGTLVTVSA VL: DIVMTQSPASLAVSLGQRATISCRASESVDNYGISLMHWYQQKPGQPPKLLIYRASDLESGIPARFSGSGSRTDFTLTINPVETDDVATYYCQQSDKDPPTFGAGTKLELKR | 0.54 µg/mL | 680 ng/mL | 
12 | 人源化14E7-1.1抗体 (antibody, human IgG1, kappa, V domains shown, human IgG1 / human kappa; also called Hz14E7-1.1) VH: QVQLVQSGAEVKKPGASVKVSCKASGYSFTSYWMHWVRQAPGQGLEWMGMIDPSDSETRYAQKFQGRVTMTVDKSTSTVYMELSSLRSEDTAVYYCARWALQYFDYWGQGTLVTVSS VL: DIQMTQSPSTLSASVGDRVTITCKASQNVGAAVAWYQQKPGKAPKLLIYSASNRYPGVPSRFSGSGSGTEFTLTISSLQPDDFATYYCQQYRPYPFTFGQGTKVEIKR | 0.443 µg/mL | 112 ng/mL | 0.115 µg/mL
13 | 人源化14E7-1.2抗体 (antibody, human IgG1, kappa, V domains shown, human IgG1 / human kappa; also called Hz14E7-1.2) VH: QVQLVQSGAEVKKPGASVKVSCKASGYSFTSYWMHWVRQAPGQGLEWMGMIDPSESETRYAQKFQGRVTMTVDKSTSTVYMELSSLRSEDTAVYYCARWALQYFDYWGQGTLVTVSS VL: DIQMTQSPSTLSASVGDRVTITCKASQNVGAAVAWYQQKPGKAPKLLIYSASNRYPGVPSRFSGSGSGTEFTLTISSLQPDDFATYYCQQYRPYPFTFGQGTKVEIKR |  | 2660 ng/mL | 0.0333 µg/mL
